Experiment [1] addresses T1, human LILRB1 on CHOK1 cells (human, UniProt Q8NHL6 24-650).
T1 construct: whole, on cells; also called CHOK1-hLILRB1; CHOK1-LILRB1
The experiment in a line: FACS binding, CHOK1-hLILRB1 cells. In general terms: Flow cytometry measures light scatter and fluorescence of single cells or particles in a stream.

Experiment [2] has as its target T1, human LILRB1 on CHOK1 cells. The experiment in a line: cell-based RBA (FACS): blocking of HLA-G binding to CHOK1-hLILRB1 cells.
For experiment [3], the target named is T2, human LILRB2 on CHOK1 cells (human, UniProt Q8N423 22-597).
T2 construct: whole, on cells; also called CHOK1-hLILRB2; CHOK1-LILRB2
T2 sequence (Q8N423 22-597): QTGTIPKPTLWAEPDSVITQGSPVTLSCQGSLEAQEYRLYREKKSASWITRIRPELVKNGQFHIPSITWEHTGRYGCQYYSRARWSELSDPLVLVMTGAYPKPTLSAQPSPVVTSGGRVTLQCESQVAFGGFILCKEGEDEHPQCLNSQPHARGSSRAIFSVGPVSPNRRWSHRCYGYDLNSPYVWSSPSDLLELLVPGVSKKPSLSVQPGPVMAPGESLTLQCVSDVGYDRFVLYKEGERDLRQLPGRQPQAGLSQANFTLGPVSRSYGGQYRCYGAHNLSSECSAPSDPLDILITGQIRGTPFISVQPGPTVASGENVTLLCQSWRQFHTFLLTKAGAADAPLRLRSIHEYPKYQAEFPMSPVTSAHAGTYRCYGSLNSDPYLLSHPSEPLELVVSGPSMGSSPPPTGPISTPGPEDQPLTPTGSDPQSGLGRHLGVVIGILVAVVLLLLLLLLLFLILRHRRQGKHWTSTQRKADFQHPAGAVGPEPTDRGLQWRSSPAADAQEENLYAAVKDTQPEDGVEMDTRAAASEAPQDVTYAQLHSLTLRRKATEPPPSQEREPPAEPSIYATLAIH
The experiment in a line: FACS binding, CHOK1-hLILRB2 cells.

T1 sequence (Q8NHL6 24-650): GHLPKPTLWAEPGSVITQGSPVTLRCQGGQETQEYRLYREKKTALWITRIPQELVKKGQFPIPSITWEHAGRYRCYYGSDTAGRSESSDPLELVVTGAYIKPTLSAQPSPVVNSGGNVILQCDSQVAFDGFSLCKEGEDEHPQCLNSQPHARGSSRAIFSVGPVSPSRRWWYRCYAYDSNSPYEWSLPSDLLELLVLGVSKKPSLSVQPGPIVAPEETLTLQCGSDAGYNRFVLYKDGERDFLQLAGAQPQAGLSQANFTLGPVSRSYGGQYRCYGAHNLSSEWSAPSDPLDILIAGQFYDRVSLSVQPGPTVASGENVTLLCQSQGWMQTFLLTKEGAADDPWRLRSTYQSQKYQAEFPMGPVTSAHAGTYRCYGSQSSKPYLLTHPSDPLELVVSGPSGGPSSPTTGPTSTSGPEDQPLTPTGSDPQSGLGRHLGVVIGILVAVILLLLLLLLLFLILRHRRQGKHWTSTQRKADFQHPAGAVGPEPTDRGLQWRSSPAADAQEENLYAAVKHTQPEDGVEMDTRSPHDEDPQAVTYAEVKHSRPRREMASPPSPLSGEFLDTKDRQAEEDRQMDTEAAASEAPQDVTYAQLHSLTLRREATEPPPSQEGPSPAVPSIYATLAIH

B1: LK-RB1-13 (antibody, human IgG4 S228P, kappa, V domains shown)
VH: QVTLKESGPGIVKPSQTLSLTCSFSGFSLSISGTGIGWIRQPSGKGLEWLAHIWWDDDKYYNPSLKSQVTISKDTSTKQVFLNITSVDTADTATYYCTRTELGRGDFWGQGTSVTVSS
VL: DILLTQSPAILSVSPGDRVSFSCRASQSTGTNIHWYQRRTNGSPRLLIKYGSESISGIPSRFSGSGTGTDFTLTINSVESEDIADYYCQQSYSWPYTFGGGTKLEIKR
As usually defined, the EC50 is the concentration at which the effect is half-maximal. A high value points to a need for much substance. As for B1, a half-maximal response in experiment [1] (EC50) required 0.2 nM. In experiment [2], the EC50 came out at 0.42 nM and the “Top Inhibition (%)” value is 81.8%. Moreover, the binding result in experiment [3] was “no binding”.

B2: LK-RB1-15 (antibody, human IgG4 S228P, kappa, V domains shown)
VH: QVTLKESGPGIVKPSQTLSLTCSFSGFSLSISGTGIGWIRQPSGKGLEWLAHIWWDDDKYYNPSLKSQVTISKDTSTKQVFLNITSVDTADTATYYCTRTELGRGDFWGQGTSVTVSS
VL: DILLTQSPAILSVSPGDRVSFSCRASQSIGTNIHWYQRRTNGSPRLLIKYGSESISGIPSRFSGSGTGTDFTLTINSVESEDIADYYCQQSYSWPYTFGGGTKLEIKR
Turning to B2, the EC50 in experiment [1] was found to be 0.64 nM. Also, in experiment [2], the EC50 was determined as 0.79 nM and the “Top Inhibition (%)” value was 67.3%. For the same molecule, the binding result in experiment [3] is “no binding”.

B3: LK-RB1-18 (antibody, human IgG4 S228P, kappa, V domains shown)
VH: QVQLKESGPGLVAPSQSLSITCTVSGFSLTNSGVTWIRQPPGKGLEWLGVIWGDGSTNYHSALISRLSISKDNSKSQVFLKLNSLQTDDTATYYCAKPHWDYYNMDYWGQGTSVTVSS
VL: DIQMTQTPSSLSASLGDRVTISCRASQDISNYLNWYQQKPDGTVKLLIYFTSRLHSGVPSRFSGSGSGTDYSLTISNLEQEDFATYFCQQGITLPLTFGAGTKLELKR
In experiment [1], B3 registered an EC50 of 0.58 nM. In experiment [2], the EC50 amounted to 0.47 nM and the “Top Inhibition (%)” value came out at 98.7%. Further, the binding result in experiment [3] is “no binding”.

B4: LK-RB1-19 (antibody, human IgG4 S228P, kappa, V domains shown)
VH: QVQLKESGPGLVAPSQNLSITCTVSGFSLTSYGVSWVRQPPGKGLEWLGIIWGDGNTDYHSALISRLSIRKDNSKSQVFLKLNSLKSDDTATYYCAKPHWEYYTMDYWGQGTSVTVSS
VL: DIQMTQTTSSLSASLGDRVTISCRASQDISNFLNWYQQKPDGTVKLLIYSTSRLHSGVPSRFSGSGSGTDYSLTIANLEQEDVATYFCQQGNTLPLTFGAGTKLELKR
As to B4, the concentration giving a half-maximal response (EC50) in experiment [1] turned out to be 0.3 nM. Moreover, in experiment [2], the concentration giving a half-maximal response (EC50) stood at 0.49 nM and the “Top Inhibition (%)” value was found to be 98.2%. Also, the binding result in experiment [3] is on record as “no binding”.

B5: LK-RB1-10 (antibody, human IgG4 S228P, kappa, V domains shown)
VH: QVTLKESGPGILKPSQTLSLTCSFSGFSLSTSGTGVGWIRQPSGKGLEWLAHIWWNDDKYYKPSLKRQLTISKDTSRNQVFLKITSVDTADTATYYCTRTELGRGDYWGQGTSVTVSS
VL: DILLTQSPAILSVSPGERVSFSCRASQSIGTNIHWYQQRMNGSPRLIIKYASELISGIPSRFSGSGSGTDFTLSINSVESEDIADYYCQQSYGWPYTFGGGTKLETKR
In experiment [1], B5 showed a 50% effective concentration (EC50) of 0.7 nM. Moreover, in experiment [2], the concentration for a half-maximal effect (EC50) was 1.04 nM and the “Top Inhibition (%)” value came to 83.1%. Besides, in experiment [3], the binding result is recorded as “no binding”.

B6: LK-RB1-14 (antibody, human IgG4 S228P, kappa, V domains shown)
VH: QVTLKESGPGILKPSQTLSLTCSFSGFSLSTSGMGVGWIRQPSGKGLEWLAHIWWDDDKYYNPSLKSQLTISKDTSRNQVFLKITSVDTADTATYYCARTELGRGDSWGQGTSVTVSS
VL: DILLTQSPAILSVSPGERVSFSCRASQSIGTSIHWYQQRTNGSPRLLIKYASESISGIPSRFSGSGSGTDFTLSINSVESEDIADYYCQQSYSWPYTFGGGTKLEIKR
Take B6: the EC50 in experiment [1] is 0.47 nM. In experiment [2], the response was half-maximal at 0.65 nM (EC50) and the “Top Inhibition (%)” value was determined as 81.2%. Also, in experiment [3], the binding result is on record as “no binding”.

B7: LK-RB1-11 (antibody, human IgG4 S228P, kappa, V domains shown)
VH: QVTLKESGPGILQPSQTLSLTCSFSGFSLKTSGMSVGWIRQPSGKGLEWLAHIWWNDDKYYNPVLKGRLTISKDTSNNLVFLKIASVVSTDTATYYCVRYGNSHGYWYFDVWGTGTTVTVSS
VL: NIVLTQSPASLAVSLGQRATISCRASESVDSYGNNFIHWYQQKPGQPPKVLIYYASNLEAGVPARFSGSGSRTDFTLTIDPVEAEDAATYYCQQNNEDPYTFGGGTKLEIER
As for B7, the concentration giving a half-maximal response (EC50) is 0.61 nM in experiment [1] and 1.34 nM in experiment [2]. Besides, the “Top Inhibition (%)” value in experiment [2] was found to be 78.9%. In addition, the binding result in experiment [3] is “no binding”.

B8: LK-RB1-16 (antibody, human IgG4 S228P, kappa, V domains shown)
VH: QVQLKESGPGLVAPSQSLSITCTVSGFSLISNAISWVRQPPGKGLEWLGVIWGDGNTIYHSALRSRLTISKDNSKSQVFLKLNSLQIDDTATYYCAKANWDGYYFDYWGQGTTLTVSS
VL: DIQMNQSPSSLSASLGDTITITCHASQSVDFWLNWYQQKPGNIPKLLISKASNLHTGVPSRFSGSGSGTTFTLTISSLQPEDIATYYCQQGQSYPLTFGSGTKLEIKR
In experiment [1], B8 showed an EC50 of 0.81 nM. In experiment [2], the EC50 was 0.53 nM and the “Top Inhibition (%)” value was found to be 98.2%. Further, in experiment [3], the binding result is recorded as “no binding”.

B9: LK-RB1-8 (antibody, human IgG4 S228P, kappa, V domains shown)
VH: QVQLQQSGAELVRPGTSVKVSCKASGYAFSNYLIEWVKQRPGQGLEWIGVINPGSDGSTYNEKFKGKATLTADKSSNTAYMQLSSLTSEDSAVYFCARGDYGRSYGMDYWGQGTSVTVSS
VL: DIVMTQSQKFMSTTVGDRVSITCKASQNVGTAVVWYQQKPGQSPKLLIYSASNRYTGVPDRFTGSGSGTDFTLTISNMQSEDLADYFCQQYSSYMYTFGGGTKLEIKR
Take B9: the 50% effective concentration (EC50) in experiment [1] was 1.14 nM. In experiment [2], the midpoint of the response, the EC50, lay at 2.56 nM and the “Top Inhibition (%)” value came to 86.9%. The binding result in experiment [3] is “no binding”.

B10: LK-RB1-12 (antibody, human IgG4 S228P, kappa, V domains shown)
VH: QVQLQQSGTELVRPGSSVMISCKASGYAFSTYWMDWVKQRPGQGLEWIGQIYPGDGATNYNGKFKGKATLTADKSSITAYMHLSSLTSEDSAVYFCLRSRDYDGWFFDVWGAGTTVTVSS
VL: DIVMTQSHKFMSTSIGDRVSITCKASQDVSSAVAWYQQKPGQSPKLLIYWASTRHTGVPDRFTGSGSGTDYTLTFSSVQAEDLALYYCQQHYSTPWTFGGGTKLEIKR
B10: the results for the EC50 in experiment [1] and in experiment [2] were 0.17 nM and 0.37 nM, respectively. Also, the “Top Inhibition (%)” value in experiment [2] came to 79.2%. For the same molecule, in experiment [3], the binding result is “no binding”.

B11: LK-RB1-9 (antibody, human IgG4 S228P, kappa, V domains shown)
VH: QIQLVQSGPELKKPGETVKISCTASGYTFTTYGMSWVKQAPGKGLKWMGWINTYSGVPTYADDFKGRFAFSLETSASTAYLEINNVKNEDTATYFCARRRRTYHGYLCFDYWGQGTTLTVSS
VL: DIQMTQSPVSLSASVGETVTITCETSENIYGALNWYQRKQGKSPQLLIYGATNLADGMSSRFSGSGSGRQYSLEISSLHPDDVASYYCQNVLNTPWTFGGGTKLEIKR
The molecule B11 showed an EC50 in experiment [1] of 0.34 nM. For the same molecule, in experiment [2], the midpoint of the response, the EC50, lay at 0.78 nM and the “Top Inhibition (%)” value turned out to be 88.1%. Besides, the binding result in experiment [3] is listed as “no binding”.

B12: LK-RB1-20 (antibody, human IgG4 S228P, kappa)
heavy: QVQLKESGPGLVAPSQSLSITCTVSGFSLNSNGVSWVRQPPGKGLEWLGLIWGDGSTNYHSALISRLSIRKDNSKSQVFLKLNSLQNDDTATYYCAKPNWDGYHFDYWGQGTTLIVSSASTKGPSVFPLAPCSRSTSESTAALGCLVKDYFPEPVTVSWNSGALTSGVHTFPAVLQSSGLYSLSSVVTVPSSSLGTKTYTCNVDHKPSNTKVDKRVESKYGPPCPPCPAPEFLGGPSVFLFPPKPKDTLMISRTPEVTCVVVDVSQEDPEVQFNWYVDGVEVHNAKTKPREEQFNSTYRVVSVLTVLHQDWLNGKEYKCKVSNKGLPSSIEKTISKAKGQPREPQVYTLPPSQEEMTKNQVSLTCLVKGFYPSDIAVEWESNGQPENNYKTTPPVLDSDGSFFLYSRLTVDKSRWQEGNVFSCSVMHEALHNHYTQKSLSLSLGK
light: DIQMNQSPSSLSASLGDTITITCHASQNIDFWLSWYQQKPGNIPKLLIYKASNLHTGVPSRFSGSGSGTGFTLTISSLQPEDIATYYCQQGQSYPLTFGAGTKLELKRTVAAPSVFIFPPSDEQLKSGTASVVCLLNNFYPREAKVQWKVDNALQSGNSQESVTEQDSKDSTYSLSSTLTLSKADYEKHKVYACEVTHQGLSSPVTKSFNRGEC
B12 came in with an EC50 in experiment [1] of 0.85 nM. For the same molecule, in experiment [2], the response was half-maximal at 0.52 nM (EC50) and the “Top Inhibition (%)” value was 97.4%. In addition, the binding result in experiment [3] is “no binding”.

The values above are taken from patent publication US20260234247A1 (published 2026).
